Residue numbers refer to the chain shown, from its start.
T1: human CEA (human, UniProt P06731 35-685)
T1 sequence: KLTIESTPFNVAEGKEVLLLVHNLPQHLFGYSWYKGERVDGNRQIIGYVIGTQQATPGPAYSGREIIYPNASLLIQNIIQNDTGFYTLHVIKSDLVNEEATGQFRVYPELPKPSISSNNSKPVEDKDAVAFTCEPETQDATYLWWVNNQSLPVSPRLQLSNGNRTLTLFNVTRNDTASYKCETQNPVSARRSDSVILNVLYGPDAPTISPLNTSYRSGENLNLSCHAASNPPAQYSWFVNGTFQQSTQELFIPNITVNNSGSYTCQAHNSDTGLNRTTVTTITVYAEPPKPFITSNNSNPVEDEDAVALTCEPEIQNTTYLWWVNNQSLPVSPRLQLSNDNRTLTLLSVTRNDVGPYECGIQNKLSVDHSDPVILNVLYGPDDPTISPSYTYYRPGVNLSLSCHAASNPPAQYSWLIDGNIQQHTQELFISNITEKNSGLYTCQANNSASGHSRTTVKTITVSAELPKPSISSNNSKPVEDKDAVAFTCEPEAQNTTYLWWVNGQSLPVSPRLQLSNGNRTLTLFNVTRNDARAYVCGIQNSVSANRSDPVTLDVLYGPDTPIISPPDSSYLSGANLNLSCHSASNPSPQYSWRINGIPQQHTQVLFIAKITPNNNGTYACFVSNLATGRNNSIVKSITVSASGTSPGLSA

B1: PDL1-M1-FES (bispecific antibody)
chain: QVQLVESGGGVVQPGRSLRLSCAASGFTFSTYAMNWVRQAPGKGLEWVARIRSKYNNYATYYADSVKDRFTISRDDSKNTLYLQMNSLRAEDTAVYYCARHGNFGNSYVSWFAYWGQGTLVTVSSGGGGSGGGGSGGGGSQTVVTQEPSLTVSPGGTVTLTCRSSTGAVTTSNYANWVQQKPGQAPRGLIGGTNKRAPGVPARFSGSLLGGKAALTLSGVQPEDEAEYYCALWYSNLWVFGGGTKVEIKRGRGSDKTHTCPPCPAPEFEGGPSVFLFPPKPKDTLMISRTPEVTCVVVDVSHEDPEVKFNWYVDGVEVHNAKTKPREEQYNSTYRVVSVLTVLHQDWLNGKEYKCKVSNKALPASIEKTISKAKGQPREPQVCTLPPSRDELTKNQVSLSCAVKGFYPSDIAVEWESNGQPENNYKTTPPVLDSDGSFFLVSKLTVDKSRWQQGNVFSCSVMHEALHNHYTQKSLSLSPGK
heavy: not shown
light: not shown
notes: structure 1; PD-L1 x CD3; CH2 FES
B2: PDL1-M1-LALA (bispecific antibody)
chain: B1 chain with F268A, E269A, S365P
heavy: not shown
light: not shown
notes: structure 1; PD-L1 x CD3; CH2 LALA
B3: M1IC-PG2-1 (bispecific antibody, human IgG1, kappa)
chain: QVQLVESGGGVVQPGRSLRLSCAASGFTFSTYAMNWVRQAPGKGLEWVARIRSKYNNYATYYADSVKDRFTISRDDSKNTLYLQMNSLRAEDTAVYYCARHGNFGNSYVSWFAYWGQGTLVTVSSGGGGSGGGGSGGGGSQTVVTQEPSLTVSPGGTVTLTCRSSTGAVTTSNYANWVQQKPGQAPRGLIGGTNKRAPGVPARFSGSLLGGKAALTLSGVQPEDEAEYYCALWYSNLWVFGGGTKVEIKGGGGSDKTHTCPPPPAPPVAGPSVFLFPPKPKDTLMISRTPEVTCVVVDVSHEDPEVQFNWYVDGVEVHNAKTKPREEQFNSTFRVVSVLTVVHQDWLNGKEYKCKVSNKGLPAPIEKTISKTKGQPREPQVCTLPPSRDELTKNQVSLSCAVKGFYPSDIAVEWESNGQPENNYKTTPPVLDSDGSFFLVSKLTVDKSRWQQGNVFSCSVMHEALHNHYTQKSLSLSPGK
heavy: EVKLDETGGGLVQPGRPMKLSCVASGFTFSDYWMNWVRQSPEKGLEWVAQIRNKPYNYETYYSDSVKGRFTISRDDSKSSVYLQMNNLRVEDMGIYYCTGSYYGMDYWGQGTSVTVSSASTKGPSVFPLAPSSKSTSGGTAALGCLVKDYFPEPVTVSWNSGALTSGVHTFPAVLQSSGLYSLSSVVTVPSSSLGTQTYICNVNHKPSNTKVDKKVEPKSCDKTHTCPPPPAPPVAGPSVFLFPPKPKDTLMISRTPEVTCVVVDVSHEDPEVQFNWYVDGVEVHNAKTKPREEQFNSTFRVVSVLTVVHQDWLNGKEYKCKVSNKGLPAPIEKTISKTKGQPREPQVYTLPPCRDELTKNQVSLWCLVKGFYPSDIAVEWESNGQPENNYKTTPPVLDSDGSFFLYSKLTVDKSRWQQGNVFSCSVMHEALHNHYTQKSLSLSPGK
light: DVVMTQTPLSLPVSLGDQASISCRSSQSLVHSNGNTYLRWYLQKPGQSPKVLIYKVSNRFSGVPDRFSGSGSGTDFTLKISRVEAEDLGVYFCSQSTHVPWTFGGGTKLEIKRTVAAPSVFIFPPSDEQLKSGTASVVCLLNNFYPREAKVQWKVDNALQSGNSQESVTEQDSKDSTYSLSSTLTLSKADYEKHKVYACEVTHQGLSSPVTKSFNRGEC
notes: structure 1 isotype control; CH2 PG2CH2
B4: PDL1-M1-G2 (bispecific antibody)
chain: B3 chain with G250R, G252R, P263C
heavy: not shown
light: not shown
notes: structure 1; PD-L1 x CD3; CH2 G2CH2
B5: PDL1-M1-SG2 (bispecific antibody)
chain: B3 chain with G250R, G252R, P263S
heavy: not shown
light: not shown
notes: structure 1; PD-L1 x CD3; CH2 SG2CH2
B6: M1IC-SG2-1 (bispecific antibody, human IgG1, kappa)
chain: B3 chain with P263S
heavy: B3 heavy with P230S
light: B3 light
notes: structure 1 isotype control; CH2 SG2CH2
B7: CEA-M3-G2 (bispecific antibody)
chain 1: QVQLVQSGSELKKPGASVKVSCKASGYTFTVFGMNWVRQAPGQGLEWMGWINTKTGEATYVEEFKGRFVFSLDTSVSTAYLQISSLKADDTAVYYCARWDFYDYVEAMDYWGQGTTVTVSSASTKGPSVFPLAPSSKSTSGGTAALGCLVKDYFPEPVTVSWNSGALTSGVHTFPAVLQSSGLYSLSSVVTVPSSSLGTQTYICNVNHKPSNTKVDKKVEPKSCGGGGSGGGGSQVQLVESGGGVVQPGRSLRLSCAASGFTFSTYAMNWVRQAPGKGLEWVARIRSKYNNYATYYADSVKDRFTISRDDSKNTLYLQMNSLRAEDTAVYYCARHGNFGNSYVSWFAYWGQGTLVTVSSASVAAPSVFIFPPSDEQLKSGTASVVCLLNNFYPREAKVQWKVDNALQSGNSQESVTEQDSKDSTYSLSSTLTLSKADYEKHKVYACEVTHQGLSSPVTKSFNRGECDKTHTCPPCPAPPVAGPSVFLFPPKPKDTLMISRTPEVTCVVVDVSHEDPEVQFNWYVDGVEVHNAKTKPREEQFNSTFRVVSVLTVVHQDWLNGKEYKCKVSNKGLPAPIEKTISKTKGQPREPQVYTLPPCRDELTKNQVSLWCLVKGFYPSDIAVEWESNGQPENNYKTTPPVLDSDGSFFLYSKLTVDKSRWQQGNVFSCSVMHEALHNHYTQKSLSLSPGK
chain 2: QTVVTQEPSLTVSPGGTVTLTCRSSTGAVTTSNYANWVQQKPGQAPRGLIGGTNKRAPGVPARFSGSLLGGKAALTLSGVQPEDEAEYYCALWYSNLWVFGGGTKVEIKSSASTKGPSVFPLAPSSKSTSGGTAALGCLVKDYFPEPVTVSWNSGALTSGVHTFPAVLQSSGLYSLSSVVTVPSSSLGTQTYICNVNHKPSNTKVDKKVEPKSC
heavy: QVQLVQSGSELKKPGASVKVSCKASGYTFTVFGMNWVRQAPGQGLEWMGWINTKTGEATYVEEFKGRFVFSLDTSVSTAYLQISSLKADDTAVYYCARWDFYDYVEAMDYWGQGTTVTVSSASTKGPSVFPLAPSSKSTSGGTAALGCLVKDYFPEPVTVSWNSGALTSGVHTFPAVLQSSGLYSLSSVVTVPSSSLGTQTYICNVNHKPSNTKVDKKVEPKSCDKTHTCPPCPAPPVAGPSVFLFPPKPKDTLMISRTPEVTCVVVDVSHEDPEVQFNWYVDGVEVHNAKTKPREEQFNSTFRVVSVLTVVHQDWLNGKEYKCKVSNKGLPAPIEKTISKTKGQPREPQVCTLPPSRDELTKNQVSLSCAVKGFYPSDIAVEWESNGQPENNYKTTPPVLDSDGSFFLVSKLTVDKSRWQQGNVFSCSVMHEALHNRFTQKSLSLSPGK
light: DIQMTQSPSSLSASVGDRVTITCKASQNVGTNVAWYQQKPGKAPKLLIYSASYRYSGVPSRFSGSGSGTDFTFTISSLQPEDIATYYCHQYYTYPLFTFGQGTKVEIKRTVAAPSVFIFPPSDEQLKSGTASVVCLLNNFYPREAKVQWKVDNALQSGNSQESVTEQDSKDSTYSLSSTLTLSKADYEKHKVYACEVTHQGLSSPVTKSFNRGEC
notes: structure 3; CEA x CD3; CH2 G2CH2
B8: CEA-M3-GG2 (bispecific antibody)
chain 1: B7 chain 1 with C475G
chain 2: B7 chain 2
heavy: B7 heavy with C233G
light: B7 light
notes: structure 3; CEA x CD3; CH2 GG2CH2
B9: CEA-M3-DG2D (bispecific antibody)
chain 1: B7 chain 1 with D510A, D515A
chain 2: B7 chain 2
heavy: B7 heavy with D268A, D273A
light: B7 light
notes: structure 3; CEA x CD3; CH2 DG2DCH2
B10: CEA-M3-DG2 (bispecific antibody)
chain 1: B7 chain 1 with D510A
chain 2: B7 chain 2
heavy: B7 heavy with D268A
light: B7 light
notes: structure 3; CEA x CD3; CH2 DG2CH2
B11: CEA-M3-G2D (bispecific antibody)
chain 1: B7 chain 1 with D515A
chain 2: B7 chain 2
heavy: B7 heavy with D273A
light: B7 light
notes: structure 3; CEA x CD3; CH2 G2DCH2
B12: CEA-M3-AG2 (bispecific antibody)
chain 1: B7 chain 1 with C475A
chain 2: B7 chain 2
heavy: B7 heavy with C233A
light: B7 light
notes: structure 3; CEA x CD3; CH2 AG2CH2

target: T2, Human CD3ε (human, UniProt P07766 23-126); experiment: flow cytometry, human T cells
T2 construct: CD3 on T cells isolated from human whole blood
Text: (§1) 1) Cell preparation: T cells isolated from CD3-positive human whole blood were used for a CD3 end affinity detection of multifunctional antibody molecule; positive tumor cells of corresponding antigen were used for detecting affinity of tumor antigen; for example, CD38-positive MM. 1S cells (purchased from the Cell Resource Center of Shanghai Institutes for Biological Sciences, Chinese Academy of Sciences) or RPMI 8226 cells (purchased from the Cell Resource Center of Shanghai Institutes for Biological Sciences, Chinese Academy of Sciences) were used for CD38 antigen detection, and PD-L1 positive H358 cells (purchased from the Cell Resource Center of Shanghai Institutes for Biological Sciences, Chinese Academy of Sciences) were used for PD-L1 antigen detection, and so on. The cells were resuspended with 1% FBS-PBS, adjusted to a density of 4×10⁶/ml, and 50 μl of cells were taken from each well, and then plated at 2×10⁵ per well. Cell plating was operated on ice
(§2) 2) Addition of the antibody: according to the experimental design, the antibody was diluted gradually, and dilution of antibody was operated on ice. For example, the initial concentration of antibody for dilution was 3000 nM, and the antibody was diluted by 3 times with 11 concentration gradients. The diluted antibody was added to a cell well at 50 μl per well, mixed well, and shaked and incubated at 4° C. 1100 rpm/min for 2 h; after washing, the cells were resuspend in 1% FBS-PBS, and a diluted secondary antibody PE anti-human IgG FC (Biolegend, 409304) was added with a final concentration of 8 ug/ml and a volume of 50 μl/well. At the same time, a well only added with cells and secondary antibody was set as a control, the components were mixed well, and incubated under shaking at 1100 rpm/min at 4° C. for 1 h;
(§3) 5) Data analysis: the data was analyzed by a flow analysis software FlowJo 7.6 thereby obtaining an average fluorescence intensity of the specific antibody concentration, plotted by a Graphpad Prism 5 with the antibody concentration (nM) as an abscissa and the average fluorescence intensity as an ordinate; the EC50 value was calculated by the method of One site—Specific binding, and the EC50 value indicated the cell affinity of the antibody to the corresponding target antigen.

Binder	EC50
B1	200 nM
B2	153 nM
B3	116 nM
B4	191 nM
B5	177 nM
B6	122 nM
B7	638 nM
B8	695 nM
B9	611 nM
B10	609 nM
B11	670 nM
B12	602 nM

target: T3, Monkey CD3 (monkey); experiment: flow cytometry, monkey T cells
T3 construct: whole, on cells; also called CD3 of monkey CD3 positive T cells

Binder	EC50
B1	207 nM
B2	196 nM
B3	146 nM
B4	239 nM
B5	194 nM
B6	222 nM

target: T1, human CEA; experiment: flow cytometry, human tumor cells (CEA+)
Text: as §1, §2, §3

Binder	EC50
B7	36.3 nM
B8	39.1 nM
B9	34.2 nM
B10	31.9 nM
B11	38.4 nM
B12	38.1 nM
